Test results reported in IntAct's records for PubMed 22466964.

B1: Cullin-2 (Homo sapiens), Q13617 (parent)
chain: MSLKPRVVDFDETWNKLLTTIKAVVMLEYVERATWNDRFSDIYALCVAYPEPLGERLYTETKIFLENHVRHLHKRVLESEEQVLVMYHRYWEEYSKGADYMDCLYRYLNTQFIKKNKLTEADLQYGYGGVDMNEPLMEIGELALDMWRKLMVEPLQAILIRMLLREIKNDRGGEDPNQKVIHGVINSFVHVEQYKKKFPLKFYQEIFESPFLTETGEYYKQEASNLLQESNCSQYMEKVLGRLKDEEIRCRKYLHPSSYTKVIHECQQRMVADHLQFLHAECHNIIRQEKKNDMANMYVLLRAVSTGLPHMIQELQNHIHDEGLRATSNLTQENMPTLFVESVLEVHGKFVQLINTVLNGDQHFMSALDKALTSVVNYREPKSVCKAPELLAKYCDNLLKKSAKGMTENEVEDRLTSFITVFKYIDDKDVFQKFYARMLAKRLIHGLSMSMDSEEAMINKLKQACGYEFTSKLHRMYTDMSVSADLNNKFNNFIKNQDTVIDLGISFQIYVLQAGAWPLTQAPSSTFAIPQELEKSVQMFELFYSQHFSGRKLTWLHYLCTGEVKMNYLGKPYVAMVTTYQMAVLLAFNNSETVSYKELQDSTQMNEKELTKTIKSLLDVKMINHDSEKEDIDAESSFSLNMNFSSKRTKFKITTSMQKDTPQEMEQTRSAVDEDRKMYLQAAIVRIMKARKVLRHNALIQEVISQSRARFNPSISMIKKCIEVLIDKQYIERSQASADEYSYVA
partner: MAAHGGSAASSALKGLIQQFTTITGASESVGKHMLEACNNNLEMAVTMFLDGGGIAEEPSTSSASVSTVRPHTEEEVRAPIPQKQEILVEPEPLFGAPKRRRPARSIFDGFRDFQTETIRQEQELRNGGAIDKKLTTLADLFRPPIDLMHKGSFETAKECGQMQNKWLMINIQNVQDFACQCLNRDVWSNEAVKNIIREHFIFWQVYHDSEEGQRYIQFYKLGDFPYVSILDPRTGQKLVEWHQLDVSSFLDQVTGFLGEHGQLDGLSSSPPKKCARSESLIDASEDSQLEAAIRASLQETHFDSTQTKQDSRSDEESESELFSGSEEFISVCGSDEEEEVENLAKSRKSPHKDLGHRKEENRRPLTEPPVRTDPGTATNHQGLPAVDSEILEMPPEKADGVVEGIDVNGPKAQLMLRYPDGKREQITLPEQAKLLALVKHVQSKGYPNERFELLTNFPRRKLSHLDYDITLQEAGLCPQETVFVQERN
B2: UBX domain-containing protein 5 (Saccharomyces cerevisiae), Q06682 (parent)
chain: MSEGKVDEFMAITGADDAAIATQFIEMADGNLNTAISLFFENGGAALLSSNNTPTPSNSTPMAPTSVDSDADAQLAERLQREAYQQQQPDQDYVRPPDEARHEVLTETSGFPISYGGIGGRFEPLHRVNDMFDEGRPESIFNQRLDDTNTNTYINDNSSDSLDSEEENDDDEYEYVEEPVIELDEDGNIKEYTKLVRKPKTISKEQKLALLFRPPFSIMSKLDLDAAKQKARAKQKWIMINIQDSGIFQCQALNRDLWSSRPVKTIIKENFVFLQYQYESRNAQPYLQFYHLNNKDDLPHIAILDPITGERVKQWNRVVPIPEQFISEINEFLASFSLDPKVPNPTVNEPLPKVDPTTLTEEQQMELAIKESLNNNSSKSNQEEVPSTGEEQKRVQEPDPFSTIEARVHPEPPNKPGITTRIQIRTGDGSRLVRRFNALEDTVRTIYEVIKTEMDGFADSRFTLNDHQREDLIDKLNMTIADAGLKNSSLLLEKLDPEIE
partner: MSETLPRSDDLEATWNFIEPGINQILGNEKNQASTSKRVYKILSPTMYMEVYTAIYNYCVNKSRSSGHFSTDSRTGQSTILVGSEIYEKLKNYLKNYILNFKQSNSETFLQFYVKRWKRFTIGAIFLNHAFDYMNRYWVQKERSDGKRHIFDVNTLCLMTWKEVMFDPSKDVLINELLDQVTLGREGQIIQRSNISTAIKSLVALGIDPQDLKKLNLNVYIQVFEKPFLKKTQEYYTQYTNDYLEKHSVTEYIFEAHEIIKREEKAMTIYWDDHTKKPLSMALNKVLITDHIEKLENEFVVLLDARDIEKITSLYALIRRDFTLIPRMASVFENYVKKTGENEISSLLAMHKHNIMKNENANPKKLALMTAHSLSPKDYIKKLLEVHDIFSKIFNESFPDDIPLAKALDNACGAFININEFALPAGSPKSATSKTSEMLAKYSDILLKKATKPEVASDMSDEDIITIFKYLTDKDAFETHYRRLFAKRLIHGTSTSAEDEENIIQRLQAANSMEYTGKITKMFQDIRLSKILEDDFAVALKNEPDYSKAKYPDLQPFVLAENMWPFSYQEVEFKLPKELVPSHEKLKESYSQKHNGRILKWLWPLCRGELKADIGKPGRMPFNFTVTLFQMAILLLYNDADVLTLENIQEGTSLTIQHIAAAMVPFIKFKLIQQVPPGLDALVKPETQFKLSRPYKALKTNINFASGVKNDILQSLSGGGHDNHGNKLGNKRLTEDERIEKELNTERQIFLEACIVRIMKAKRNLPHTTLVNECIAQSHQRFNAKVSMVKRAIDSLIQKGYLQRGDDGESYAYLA
B3: UBX domain-containing protein 7 (Homo sapiens), O94888 (parent)
chain: B1 partner

Variants of: B1
Conditions: with ubxn7_human UBXN7, O94888

Variant | effect of a mutation on the interaction
K689R | disrupting interaction strength

Variants of: B2
Conditions: with cdc53_yeast CDC53, Q12018

Variant | effect of a mutation on the interaction
E361R;M365E;A368Q | disrupting interaction strength
A368Q | disrupting interaction strength

Variants of: B3
Conditions: with cul2_human CUL2, Q13617

Variant | effect of a mutation on the interaction
E286R;L290E;A293Q | disrupting interaction strength
A293Q | disrupting interaction strength
